From article doi:10.1101/474478 (bioRxiv, 2018)

Target: the molecule itself
Assay: crystal structure

B1: mouse Nudt12 catalytic domain (residues 126-462), E219A/E220A/E221A triple mutant (domain or fragment, UniProt Q9DCN1 126-462, looked up)
chain: LDRRSDKRNNSDWLQAKESHPTTVYLLFSDLNPLVTLGGNKESSQQPEVRLCQLNYPDVKGYLAQPEKITLVFLGVELEMRKGSPAQAGGVPEAAADGLVAWFALGIEPGAAEEFKQRHENCYFLHPPMPALLQLKEKEAGVVAQARSVLAWHSRYKFCPTCGSATKIEEGGYKRVCVRETCPSLQGVHNTSYPRVDPVVIMQVIHPDGTKCLLGRQKRFPPGMFTCLAGFIEPGETIEDAVRREVEEESGVKVGHVQYVSCQPWPMPSSLMIGCLAVAVSTEIKVDKNEIEDARWFTREQVVDVLTKGKQQAFFVPPSRAIAHQLIKHWVGMNPNL
stoichiometry N: 2
